Data: the DeepSol protein solubility set

Assay: soluble on expression in E. coli; label from the status in PepcDB or PDB records

Soluble on expression in E. coli, soluble:
GMECRPLCIDDLELVCRHREAMFREAGRDALTLAAMQDPFRDWLLPRLADGSYFGWVMEEGGAPLAGIGLMVIEWPPHPSHPLQDKRGYILNLYVDPSHRERGIGQALMNRAEAEFAERGIAFAVLHATEMGQPLYARMGWSPTTEMSKPIAG, GSHMRPQGATVSLWETVQKWREYRRQCQRSLTEDPPPATDLFCNRTFDEYACWPDGEPGSFVNVSCPWYLPWASSVPQGHVYRFCTAEGLWLQKDNSSLPWRDLSECEESKRGERSSPEEQLLFLY, GSHMTGISRETSSDVALASHILTALREKQAPELSLSSQDLELVTKEDPKALAVALNWDIKKTETVQEACERELALRLQQTQSLHSLRSISASKASPPGDLQNPKRARQDPT, GPGSMNKSAKDTANPLFPATAIATIDVRAIVANYRTLAQHVAPTECSAVVKANAYGLGAHKIAPALYQAGCRTFFVAQIEEALQLKAVLPENVMIALLNGFPHKAEEFVAQSGIIPLLNSWSTIEDWQTLCQKKNKKFPAIIQVDTNMSRLGLDKKELQKLIKNPTIFEKAEIKYILSHLANGEDASHSSNNKQLAAFKRVLAQLPTCKVSFANSGGIFLGSDFYFDLVRPGIALYGVDPHGKHPTPLKAVVKVEAQVLQSRFIDAGIPVGYRESFMTRRPSTLATISIGYADGWPRILSNKGTVYFNGHKLPIVGHISMDSIIVDATDLDKKPQRGDWVELIGPHQPLEKVSTDTNTIPHEILTSLGKRYKRIYI, MIRFEIHGDNLTITDAIRNYIEEKVGKLERYFNNVPNAVAHVRVKTYSNSTTKIEVTIPLKDVTLRAEERHDDLYAGIDLITNKLERQVRKYKTRVNRKHRDRGDQDIFVAEVQESTTNNHADDIESENDIEIIRSKQFSLKPMDSEEAVLQMNLLGHDFFIFTDRETDGTSIVYRRKDGKYGLIETTELEHHHHHH, MIRISDAAQAHFAKLLANQEEGTQIRVFVINPGTPNAECGVSYCPPDAVEATDTALKFDLLTAYVDELSAPYLEDAEIDFVTDQLGSQLTLKAPNAKMRKVADDAPLMERVEYMLQSQINPQLAGHGGRVSLMEITEDGYAILQFGGGCNGCSMVDVTLKEGIEKQLLNEFPELKGVRDLTEHQRGEHSYY, MNYRIIPVTAFSQNCSLIWCEQTRLAALVDPGGDAEKIKQEVDDSGLTLMQILLTHGHLDHVGAAAELAQHYGVPVFGPEKEDEFWLQGLPAQSRMFGLEECQPLTPDRWLNEGDTISIGNVTLQVLHCPGHTPGHVVFFDDRAKLLISGDVIFKGGVGRSDFPRGDHNQLISSIKDKLLPLGDDVIFIPGHGPLSTLGYERLHNPFLQDEMPVW, KTQGFLTMSRRRISCKDLGHADCQGWLYKKKEKGSFLSNKWKKFWVILKGSSLYWYSNQMAEKADGFVNLPDFTVERASECKKKHAFKISHPQIKTFYFAAENVQEMNVWLNKLGSAVIHQESTTKDEECYSESEQEDPEIAAETPPPPHASQTQSLTAQQASSSSPSLSGTSYSFSSLENTVKTPSSFPSSLSKERQSLPDTVNSLSAAEDEGQPITFAVQVHSPVPSEAGIHKALENSFVTSESGFLNSLSSDDTSSLSSNHDHLTVPDKPAGSKIMDKEETKVSEDDEMEKLYKSLEQASLSPLGDRRPSTKKELRKSFVKRCKNPSINEKLHKIRTLNSTLKCKEHDLAMINQLLDDPKLTARKYREWKVMNTLLIQDIYQQQRASPAPDDTDDTPQELKKSPSSPSVENSI, MGVLITGCGSRGDTEPLVALAARLRELGADARMCLPPDYVERCAEVGVPMVPVGRAVRAGAREPGELPPGAAEVVTEVVAEWFDKVPAAIEGCDAVVTTGLLPAAVAVRSMAEKLGIPYRYTVLSPDHLPSEQSQAERDMYNQGADRLFGDAVNSHRASIGLPPVEHLYDYGYTDQPWLAADPVLSPLRPTDLGTVQTGAWILPDQRPLSAELEGFLRAGSPPVYVGFGSGPAPAEAARVAIEAVRAQGRRVVLSSGWAGLGRIDEGDDCLVVGEVNHQVLFGRVAAVVHHGGAGTTTAVTRAGAPQVVVPQKADQPYYAGRVADLGVGVAHDGPTPTVESLSAALATALTPGIRARAAAVAGTIRTDGTTVAAKLLLEAISRQRSSVPAAKLAAALEHHHHHH, MSLDPTRVDLLSICKEILTYPEYQERLPAGSAHPNIDSPAIKSLYAEIGRHSRQQTHVPSHYQLPPGDHLLIKQLAKITQDLGTPAKLDEIMVTHGAQQAISLALRATTQKGDIVAVESPCYFGNLLMLESLGLKVVEIPSCPRDGMCPEALAKTMATWDIKALIVTPNFTNPTGAMMPLEKRQQLLLASGNIPIIEDDVFGGLSYDKPLPSLSLLDDKQRVIYVNSLSKTLDSRLRIGWMLAGRYRDQIEQYLLCENMGSLNLMQSAVATFLTSGKYRTHTARMGRVYQNNMRRFIQMLHQYLDEYESLKNRYQINAVQGSFLLWLRLPEDTDSYALYQACNKHRISLLPGTVFGTQEQYRHCVRLSVANFGHETDWSHAMQTLAKLIAKRVCEGHHHHHH, MTIQLINESSNTAKFQQICEKWQLVHDKSASLALVLTDTRLELRKLDEAKLGAIAVNFVDGTLAHRRKFGGGRGEAIAKAVGIKGNYLPSVIDATAGLGRDAFVLAAIGCKVTLVERHPVIAALLEDGLTRAYLDAEIGEFMQQRMQLANVHNIAQLDTTTQSADVVYLDPMYPHKQKSALVKKEMRVFQHLVGADLDADQFLLPAKALATKRVVVKRPDYAPPLAEQHPSFSQKTKNHRFDIYLSPLQKRLEHHHHHH, MSLTRRDFAGRSALTGAGVVLAGSVGALATAPNALASTDTDSVGAEHDGHDHHHGHGHGGVGYGPLLPDPDGILALPAGFRYEIITYSGRTKLESGEYTPSNHDGTAAFDGPRGTTLLVNNHELGGHRDDWPHPVPLTEGLVYDPAAAGGCTVVEVRRGGHVAEWVGIAGTATNCAGGSTPWGTWLTCEETEDRAGEEGMTKDHGYVFEVDPEDRRANREPKPVKALGRYAHEAVVIDPKRGHAYLTEDASGPNGLLYRWTPPEHFRHGRGRLRTLADDAGVLQAFKCFDSGGKFVDDLSRATRTGTVYGVDWVDVPDRDAQTTSVRKQFAAGEVTRARKLEGMWWADGGAYVVSSFARDESPGRPHDGQVWFYDPKRRTLTLKVLLGVNADPSADGAFDGPDNITVSPYGGLVIAEDGDGVQHLFGATDSGRTYPIARNELNLGTEDDPEYSEFTGVTFSPDGRTLYANIQTPGIMLAITGPWKRQKRR

Soluble on expression in E. coli, not soluble:
MESTIEGEDENYVKVYITDNLDSEHELTIDKNSGDIPYHQCDAYADDANRRTSEENEYNNQARRYAKYYVFAQRGYDTVEHIENPAYVDAVRRAIADLSPAEFKRYFGALYRQLRSHHDDTERPRELPSGVRKPDAVVYEPEIYLGLEAVGEDVAERAQALATAHGFDLEESAEVQPVSELSDETLSRWKAFGDDLAAIVTREDLTTNLTITGVSGLHIGYPNRLGKHEVDEADSPFTHQADARLSLLPYAPESFDEFPAYLDHHLRCQVRDCFLKMGVVPPEEFHVVGFGKFRDSRRYDHFEMYPEVHKRDGNHTPLLG, MGSDKIHHHHHHMLHKNDYRLGIDVGGTNTDAAILDADLRCIATAKFPTSMDIYSGIERVIAAVLAQSGIEPQHICYAMLGTTQCTNAIVERKGLDRVGLLRLSLPSSDSVPPLFGWDDEWQKTLGEHFYQLHGGYEFDGREIHPVLLNEVLAVCDTMRGHVDSVAICGVFSPVNNDQELQVAQWVNAALPDVSLSLSHRIGSTGLLERENATILNASLQSTANRFVNGFIQALVRHGIKATPFFGQNDGTLMSESMVKQYPILTMACGPTNSIRGACHLSGLDNALIIDVGGTTTDIGVLVNGFPRESAIAVEVGDVRTNFRMPDIISIGIGGGTCVRQSQNGTLTLGPDSVGYRLLEQSVSFGGETLTLNDIMLQLQRERWTSSLSHSLPELDKALCLEAYRQMIDKVESAIDRIKSSSAAIPAVLVGGGSILLPDVLSGVSQVMRPQNFDAANAVGVALGKVGAQIERVVKMSDNDREKIKSELQQQTICLAEETGAMPGSVEIIDYQEIPLAYLPGNAVQVKIKAAGNLA, MTDTNSQWIEMNLQRQRKMLEDKQKQKRHQSAGSVRTTSTAMSMNSMKDYPTFDNSLPFSISDNSSVSVSMNTPLIPTQDPIAQPRMQSMPRQQPQQVQESLISIGDYPDNDINAKLSKVNLTSCVVSDDEDEDKRSYADSPWNTDVVADRIPSEVLPDYNFIKNNLAKFVEDPAVEHCLYKCSITRQKSGVDKGMFPTYFLHLEEFDTDKRQKIFLLAARKRKKSTTANYLLSTDPTNLSREGEGYCAKVRSNALGTQFTVYDSGQNPKKTTNHAAIRQELAAVIYETNVLGFKGPRKMTIVMPGIEPPTENRPAVRCPVRPIQDKHTLLERYRLNDLDSLKILSNKSPQWNDETQSYVLNFHGRVTQASVKNFQIIHQSSPEYIVMQFGRISDDEFTMDFRYPLSAVQAFGIAMTSFHGKLACE, MTLAVLASRAIAGWQAPAVRVETHLGSGLPAFAIVGLPDVEVRESRERVRAAIQNSGFDFPPGRITVNLSPADLPKASARFDLPIALGILLASGQVAASAAQTAALPDCVWAAELSLSGALVPLAAPLALALAVAREQPGATLVLPAGSAAVAAWVPGIRVLAAHTLGEAAAYLAGHAELAPAERRSWPEAEPGPCLSDVRGQPAARRALEVAAAGGHSLLMCGPPGAGKSMLAQRLPGLLPPLEQRQALEVAAIAGAGGAPEVLRGQPPFRAPHHSASAAALVGGGARPRPGEISLAHHGVLFLDELPEFERRALESLREPLETGKVVISRALHSVEYPAVFQLVAAMNPCPCGWRGHASKACRCTPDQVRRYAARVSGPLVDRIDLWIELPATEPQWLAEPPGEPSLPVRERVARCRQRQLARQGCLNAKLSGPALDAHCALGAAARTLLQQAMRRLGGSARAAHRALRVARTLADLAHEPEIGAAHIAEAVQYRRPT, MNYILGTILESKITGVEKAQINRLKLFKQHGISSKCVYVKWNPYSYTYAKQHQIENDVFTMYDYFQKAINYKKTKQVNWIQYWEKSCRYTLKFVENSNDVRIYDEEQFVMYAHFLDKQYHQLNYVNYFDHKRRKVKRELYDGRGFLSCSRILGEGQRIVLENYYTPNGEIVIQKYFDDIKGKNTLTKVILNEDQHQQFFDTEDELVQYFLHQLCKNNDQIILDRPHELGNVIAGLNQSIPVIVVLHSTHLSGAGNGIKSFYKTVFNNLTRYKAIVVSTEKQCQDISQYIENKIPVINIPVGYVANLKYQFDINQKEKNHIISIARLVENKQIKHQIEVIKQLVTKHPNIQLNIYGHGNGLSEYRQLVEDYHLSEHVKFHGFKTHINEEIAKAELMLSTSKMEGFGLAILESLSVGTPVISYDVDYGPSELIQDGFNGYLVPQGDINQMVEKVDQLLNNTQKLQQFSINSIESAQQYNATTISTKWQNILN, MSLSQFAAGAGKKAGEFYTPQEVSRILAEIVAIGHQRLRNVYDPTCGSGSLLLRAASIGNAVDIYGQEKNPTTYNLARMNMLLHGIRFSNFKIENGDTLEWDAFGDTQFDAVVANPPFSAEWSAADKFNTDDRFSKAGRLAPRKTADYAFILHMIYHLNEGGTMACVAPHGVLFRGNAEGVIRRFLIEKKNYVDAIIGLPANIFYGTSIPTCILVFKKEGHHHHHH, MNQWMELADRVLAGAEVTDEEALSILHCPDEDILLLMHGAFHIRKHFYGKKVKLNMIMNAKSGLCPENCGYCSQSAISKAPIESYRMVNKETLLEGAKRAHDLNIGTYCIVASGRGPSNREVDQVVDAVQEIKETYGLKICACLGLLKPEQAKRLKDAGVDRYNHNLNTSQRNHSNITTSHTYDDRVNTVEIAKESGLSPCSGAIIGMKETKQDVIDIAKSLKALDADSIPVNFLHAIDGTPLEGVNELNPLYCLKVLALFRFINPSKEIRISGGREVNLRTLQPLGLYAANSIFVGDYLTTAGQEETEDHKMLSDLGFEVESVEEMKASLSAKSLEHHHHHH
